Experimental findings from patent US5770690, “Bax omega protein and methods” (Neurex Corporation, dated 1998) are described below.

The target in this experiment is T1, Bax-ω GAL4-transactivation domain hybrid (plasmid Bax-ω-GAL424) (yeast; human).
T1 chain: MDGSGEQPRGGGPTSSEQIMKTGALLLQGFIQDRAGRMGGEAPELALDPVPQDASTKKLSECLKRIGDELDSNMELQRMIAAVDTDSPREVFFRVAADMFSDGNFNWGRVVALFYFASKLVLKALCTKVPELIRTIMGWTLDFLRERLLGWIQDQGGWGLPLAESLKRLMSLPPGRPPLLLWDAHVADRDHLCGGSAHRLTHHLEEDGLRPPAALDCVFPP
Description: yeast two-hybrid: β-galactosidase filter assay (SFY526) and growth in the absence of histidine (HF7C); (-) means white signal / no growth.

B1: Bax-ω GAL4-DNA binding domain hybrid (plasmid Bax-ω-pAS1) (other)
chain: MDGSGEQPRGGGPTSSEQIMKTGALLLQGFIQDRAGRMGGEAPELALDPVPQDASTKKLSECLKRIGDELDSNMELQRMIAAVDTDSPREVFFRVAADMFSDGNFNWGRVVALFYFASKLVLKALCTKVPELIRTIMGWTLDFLRERLLGWIQDQGGWGLPLAESLKRLMSLPPGRPPLLLWDAHVADRDHLCGGSAHRLTHHLEEDGLRPPAALDCVFPP
Regarding B1, the binding result is “no binding”.
